The values that follow come from PMC12321133, “scFv intrabody targeting wildtype TDP-43 presents protective effects in a cellular model of TDP-43 proteinopathy” (PLOS One, 2025).

The assay concerns the target T1, commercial recombinant human full-length wtTDP-43 (Abcam, ab224788) (human, UniProt Q13148 1-414).
T1 construct: TDP-43 (TARDBP), human, wild type, recombinant full length; also called recombinant wtTDP-43; source: bought: Abcam, ab224788
Nature of the assay: ELISA; indirect ELISA: wells coated overnight at 4 °C with commercial human wtTDP-43 at 1 µg/mL in PBS; purified scFv at 1, 5 or 10 µg/mL, 1 h at RT; detected with HRP-conjugated anti-6xHis antibody, absorbance at 450 nm. Conditions: both partners purified. A general note: ELISA stands for enzyme-linked immunosorbent assay.

T1 sequence (Q13148 whole entry): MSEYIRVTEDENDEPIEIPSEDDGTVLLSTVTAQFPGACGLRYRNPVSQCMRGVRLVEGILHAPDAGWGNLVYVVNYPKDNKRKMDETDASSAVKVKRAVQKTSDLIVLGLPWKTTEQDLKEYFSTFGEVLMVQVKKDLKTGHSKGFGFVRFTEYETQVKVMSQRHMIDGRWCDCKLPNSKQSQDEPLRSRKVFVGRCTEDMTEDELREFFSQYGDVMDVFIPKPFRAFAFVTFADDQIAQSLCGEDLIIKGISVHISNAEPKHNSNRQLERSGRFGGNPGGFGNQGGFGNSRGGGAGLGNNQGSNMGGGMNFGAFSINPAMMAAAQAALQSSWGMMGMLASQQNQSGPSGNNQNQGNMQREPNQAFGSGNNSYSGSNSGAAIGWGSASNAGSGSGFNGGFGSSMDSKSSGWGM

B1: scFv B1, purified (c-myc and 6xHis tags) (scFv)
scFv: MAEVQLVESGGSLVKPGGSLRLSCAASGFTFSNYDMNWVRQAPGKGLEWISDIDGSSRNIYYADFVKGRFTISRDNATNSLYLQMNSLRAEDTAVYYCVRSSYYDNGMDVWGRGTLVTVSSGGGGSGGGGSGGGGSQSVLTQPASVSGSPGQSITISCAGTSSDVGGYDGVSWYQQHPGKAPKLMIYYDSYRPSGVSNRFSGSKSGNTASLTISGLQAEDEADYYCSSYTYYSTRVFGGGTKLAVLG
notes: VH of scFv B1 as printed; linker of the HuscI library between VH and VL; VL of scFv B1; Selected from the human synthetic HuscI library; The scFv was moved as an NcoI-NotI fragment from pHEN-HuscI into pET-23NN, which adds c-myc and 6xHis at the 3' end; source: E. coli BL21(DE3)pLysS, pET-23NN vector, purified (Ni-NTA, dialysed in MilliQ water); not shown: c-myc, C-terminal, kept; His6, …
For B1, the “fold increase of the ELISA signal over the control scFv 13R4 at 5 µg/mL” value amounted to 5 fold and the “fold increase of the ELISA signal over the control scFv 13R4 at 10 µg/mL” value came to 3 fold.

B2: scFv D7, purified (c-myc and 6xHis tags) (scFv)
scFv: MAEVQLVESGGSLVKPGGSLRLSCAASGFTFSNYYMNWVRQAPGKGLEWISDIYGSSRYISYADFVKGRFTISRDNATNSLYLQMNSLRAEDTAVYYCVRSSSNDGGGMDVWGRGTLVTVSSGGGGSGGGGSGGGGSQSVLTQPASVSGSPGQSITISCAGTSSDVGGNNYVSWYQQHPGKAPKLMIYYDSYRPSGVSNRFSGSKSGNTASLTISGLQAEDEADYYCSSYTYSSTRVFGGGTKLAVLG
notes: VH of scFv D7 as printed; linker of the HuscI library between VH and VL; VL of scFv D7; Selected from the human synthetic HuscI library; The scFv was moved as an NcoI-NotI fragment from pHEN-HuscI into pET-23NN, which adds c-myc and 6xHis at the 3' end; source: E. coli BL21(DE3)pLysS, pET-23NN vector, purified (Ni-NTA, dialysed in MilliQ water); not shown: c-myc, C-terminal, kept; His6, …
With B2, the “fold increase of the ELISA signal over the control scFv 13R4 at 5 µg/mL” value was determined as 2 fold and the “fold increase of the ELISA signal over the control scFv 13R4 at 10 µg/mL” value is 2 fold.
